According to FireProtDB (doi:10.1021/bi00116a007):

Details: Escherichia coli (strain K12); pH 7.5; 25 °C; Urea; DSC; potassium-HEPES 40 mM; reversible: yes; whole UniProt chain shown

B1: Aspartate aminotransferase wild type, P00509 (protein)
chain: MFENITAAPADPILGLADLFRADERPGKINLGIGVYKDETGKTPVLTSVKKAEQYLLENETTKNYLGIDGIPEFGRCTQELLFGKGSALINDKRARTAQTPGGTGALRVAADFLAKNTSVKRVWVSNPSWPNHKSVFNSAGLEVREYAYYDAENHTLDFDALINSLNEAQAGDVVLFHGCCHNPTGIDPTLEQWQTLAQLSVEKGWLPLFDFAYQGFARGLEEDAEGLRAFAAMHKELIVASSYSKNFGLYNERVGACTLVAADSETVDRAFSQMKAAIRANYSNPPAHGASVVATILSNDALRAIWEQELTDMRQRIQRMRQLFVNTLQEKGANRDFSFIIKQNGMFSFSGLTKEQVLRLREEFGVYAVASGRVNVAGMTPDNMAPLCEAIVAVL
denaturant m value: 2.56 kcal/mol/M | denaturant midpoint (higher = more stable): 3.89 M | unfolding free energy: 9.96 kcal/mol
